In one assay the target is T1, 人CD3蛋白 (human).
T1 construct: Bought from ACRO; also called 重组人CD3; human CD3 protein (Fc标签)
Kind of assay: ELISA, coated human CD3 protein.

Assay [1] addresses T2, 人GUCY2C蛋白(His标签) (human, UniProt P25092 24-430).
T2 construct: Bought from ACRO; also called 重组人GUCY2C; human GUCY2C protein (His tag); not shown: His tag
The assay can be described thus: ELISA, coated human GUCY2C protein.

Assay [2] deals with 细胞表面表达的GUCY2C (HT55, SW948, LS174T-GUCY2C, HT1080-GUCY2C细胞) (human, UniProt P25092 24-1073). Kind of assay: cell-based or functional assay.
细胞表面表达的GUCY2C (HT55, SW948, LS174T-GUCY2C, HT1080-GUCY2C细胞), sequence (P25092 24-1073): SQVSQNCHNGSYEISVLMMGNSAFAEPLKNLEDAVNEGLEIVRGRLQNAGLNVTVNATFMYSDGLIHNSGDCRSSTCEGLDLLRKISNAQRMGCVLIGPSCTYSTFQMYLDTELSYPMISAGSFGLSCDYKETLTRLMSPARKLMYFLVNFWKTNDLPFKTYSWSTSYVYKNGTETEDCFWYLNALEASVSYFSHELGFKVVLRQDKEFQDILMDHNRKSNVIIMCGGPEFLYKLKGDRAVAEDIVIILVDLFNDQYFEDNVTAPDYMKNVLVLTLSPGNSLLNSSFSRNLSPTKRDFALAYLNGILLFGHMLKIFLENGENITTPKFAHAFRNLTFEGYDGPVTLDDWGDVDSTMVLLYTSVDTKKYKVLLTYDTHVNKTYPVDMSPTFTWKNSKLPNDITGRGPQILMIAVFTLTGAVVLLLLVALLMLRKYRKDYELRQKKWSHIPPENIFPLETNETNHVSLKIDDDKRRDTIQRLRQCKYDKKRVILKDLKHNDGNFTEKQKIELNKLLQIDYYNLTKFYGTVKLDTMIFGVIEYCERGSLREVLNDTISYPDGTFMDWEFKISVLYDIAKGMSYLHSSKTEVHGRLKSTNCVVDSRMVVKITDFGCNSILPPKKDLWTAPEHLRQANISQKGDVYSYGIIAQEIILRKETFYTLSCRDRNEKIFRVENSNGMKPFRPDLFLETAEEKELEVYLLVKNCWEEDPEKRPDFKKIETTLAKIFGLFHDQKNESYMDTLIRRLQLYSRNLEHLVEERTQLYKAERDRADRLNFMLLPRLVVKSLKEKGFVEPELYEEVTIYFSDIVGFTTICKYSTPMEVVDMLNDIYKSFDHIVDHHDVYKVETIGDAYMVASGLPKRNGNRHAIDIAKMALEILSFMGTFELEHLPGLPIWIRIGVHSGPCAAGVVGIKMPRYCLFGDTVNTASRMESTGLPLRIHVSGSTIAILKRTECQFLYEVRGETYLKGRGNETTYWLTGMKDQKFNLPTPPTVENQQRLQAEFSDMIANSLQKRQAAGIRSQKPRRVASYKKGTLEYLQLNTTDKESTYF
The target in assay [3] is CD3 on TCR/CD3效应细胞 (Jurkat-NFAT-CD3) (human). Kind of assay: cell-based or functional assay.
CD3 on TCR/CD3效应细胞 (Jurkat-NFAT-CD3) (human), sequence (chain, as listed by the source): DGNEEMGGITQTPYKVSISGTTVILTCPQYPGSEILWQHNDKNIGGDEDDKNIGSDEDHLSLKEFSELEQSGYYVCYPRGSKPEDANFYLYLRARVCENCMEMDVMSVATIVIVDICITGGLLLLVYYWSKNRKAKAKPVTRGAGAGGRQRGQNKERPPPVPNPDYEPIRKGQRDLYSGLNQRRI
Assay [4] deals with T2, 人GUCY2C蛋白(His标签). Kind of assay: ELISA, coated human GUCY2C protein, anti-Fc HRP detection.

T2 sequence (P25092 24-430 limits assumed): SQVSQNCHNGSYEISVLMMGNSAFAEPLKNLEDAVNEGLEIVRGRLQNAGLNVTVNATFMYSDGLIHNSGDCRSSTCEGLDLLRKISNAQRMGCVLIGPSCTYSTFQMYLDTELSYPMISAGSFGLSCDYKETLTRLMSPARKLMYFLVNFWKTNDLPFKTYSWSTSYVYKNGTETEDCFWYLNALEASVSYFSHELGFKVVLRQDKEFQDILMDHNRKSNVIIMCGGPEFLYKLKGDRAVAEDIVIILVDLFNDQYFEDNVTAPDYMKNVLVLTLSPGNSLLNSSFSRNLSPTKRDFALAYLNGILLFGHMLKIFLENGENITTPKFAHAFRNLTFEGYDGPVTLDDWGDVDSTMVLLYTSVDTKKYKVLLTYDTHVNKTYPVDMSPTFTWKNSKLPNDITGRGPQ
T1 sequence (P07766 23-126): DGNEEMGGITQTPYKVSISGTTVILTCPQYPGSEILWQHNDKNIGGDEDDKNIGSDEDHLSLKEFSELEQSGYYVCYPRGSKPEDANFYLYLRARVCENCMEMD

B1: GCC-56C9H4-M6MV1-1 (bispecific antibody, human IgG1, kappa)
light: EVQLVESGGGLVKPGGSLRLSCAASGFTFSSYAMTWVRQTPEKRLEWVATMSSGGGYTYYLDSVKGRFTISRDNAKNTLYLQMSSLRADDTAVYYCARHNYGYNYAMDYWGQGTLVTVSSGGGGSGGGGSGGGGSEIVLTQSPAIQSVSPGEKVTITCSASSSVSYIHWYQQRPGKAPKLLIYSTSNLASGVPARFSGSGSGTDFSLTISRLQAEDAATYYCQQRSSYPLTFGQGTKLEIKGSGGGGSGGGGSEIVVTQSPATLSVSPGERATLSCRSSTGAVTTSNYANWVQQKPGQAPRGLIGGANKRAPGVPARFSGSLSGDEATLTISSLQSEDFAVYYCALWYSNLWVFGQGTKLEIKRTVAAPSVFIFPPSDEQLKSGTASVVCLLNNFYPREAKVQWKVDNALQSGNSQESVTEQDSKDSTYSLSSTLTLSKADYEKHKVYACEVTHQGLSSPVTKSFNRGECGGSGSCPPCPAPEAAGAPSVFLFPPKPKDTLMISRTPEVTCVVVDVSHEDPEVKFNWYVDGVEVHNAKTKPREEQYNSTYRVVSVLTVLHQDWLNGKEYKCKVSNKALGAPIEKTISKAKGQPREPQVYTLPPSRDELTKNQVSLLCLVKGFYPSDIAVEWESNGQPENNYKTTPPVLDSDGSFFLHSKLTVDKSRWQQGNVFSCSVMHEALHNHYTQKSLSLSPG
heavy: EVQLVESGGGLVQPGGSLRLSCAASGFTFNTYAMNWVRQAPGKGLEWVARIRSKYNNYATYYADSVKGRFTISRDDSKNTLYLQMNSLRAEDTAVYYCARHGNFGSSYVSYFAYWGQGTTVTVSSASTKGPSVFPLAPSSKSTSGGTAALGCLVKDYFPEPVTVSWNSGALTSGVHTFPAVLQSSGLYSLSSVVTVPSSSLGTQTYICNVNHKPSNTKVDKKVEPKSCDKTHTCPPCPAPEAAGAPSVFLFPPKPKDTLMISRTPEVTCVVVDVSHEDPEVKFNWYVDGVEVHNAKTKPREEQYNSTYRVVSVLTVLHQDWLNGKEYKCKVSNKALGAPIEKTISKAKGQPREPQVYTLPPSRDELTKNQVSLLCLVKGFYPSDIAVEWESNGQPENNYKTTPPVLDSDGSFFLHSKLTVDKSRWQQGNVFSCSVMHEALHNHYTQKSLSLSPG
notes: Heterodimer of a 'light chain' (humanised anti-GUCY2C scFv - linker - anti-CD3 hSP34 VL-CL - mFc7.2) and a 'heavy chain' (anti-CD3 VH-CH1 - mFc7.2); expressed in 293FS or CHO-S cells; also called GUCY2C×CD3 IBiTE
B1 had an EC50 with 人CD3蛋白 of 0.116 µg/mL. This molecule also came in with an EC50 with 人GUCY2C蛋白(His标签) [1] of 0.14 µg/mL. In assay [2], the “T cell activation: Jurkat-NFAT-CD3 luciferase reporter with HT55 target cells, EC50” value was around 0.374 µg/mL; the “T cell activation: Jurkat-NFAT-CD3 luciferase reporter with LS174T-GUCY2C target cells, EC50” value is around 0.335 µg/mL; the “T cell activation: Jurkat-NFAT-CD3 luciferase reporter with SW948 target cells, EC50” value was around 0.519 µg/mL; the “killing of HT55 cells with human PBMC (CCK8), EC50” value worked out at 0.0152 µg/mL. In addition, in assay [2], the “killing of LS174T-GUCY2C cells with human PBMC (CCK8), EC50” value turned out to be 0.00274 µg/mL and the “killing of SW948 cells with human PBMC (CCK8), EC50” value worked out at 0.012 µg/mL. Moreover, in assay [3], the “T cell activation: Jurkat-NFAT-CD3 luciferase reporter with HT55 target cells, EC50” value was around 0.374 µg/mL; the “T cell activation: Jurkat-NFAT-CD3 luciferase reporter with LS174T-GUCY2C target cells, EC50” value is around 0.335 µg/mL; the “T cell activation: Jurkat-NFAT-CD3 luciferase reporter with SW948 target cells, EC50” value was around 0.519 µg/mL.

B2: GCC-56C9M mAb (antibody, human IgG1, kappa)
heavy: not shown
light: QIVLTQSPAIMSVSPGEKVTITCSASSSVSYIHWFQQRPGTSPKLWIYSTSNLASGVPARFSGSGSGTSYSLTISRMEAEDAATYYCQQRSSYPLTFGTGTKLELKRTVAAPSVFIFPPSDEQLKSGTASVVCLLNNFYPREAKVQWKVDNALQSGNSQESVTEQDSKDSTYSLSSTLTLSKADYEKHKVYACEVTHQGLSSPVTKSFNRGEC
notes: Chimeric full IgG1: Fab of mouse clone 56C9 fused to human IgG1 Fc; expressed in CHO-S cells; also called 抗GUCY2C mAb; 抗GUCY2C单克隆抗体
B2 displayed an EC50 in the assay with 人GUCY2C蛋白(His标签) [4] of 0.193 µg/mL. The “ADCC reporter: activation of Jurkat-CD16a cells in the presence of HT1080-GUCY2C cells (luciferase), EC50” value in assay [2] was around 0.0247 µg/mL.

These data come from patent publication CN116574187A (ZHEJIANG SHIMAI PHARMACEUTICAL CO LTD, dated 2023).
